The text below walks through data of the Human Domainome abundance scans (Beltran et al. 2025).

B1: Ras GTPase-activating protein 1, residues 281 to 341; numbered along this chain, P20936 (parent)
chain: RRRVRAILPYTKVPDTDEISFLKGDMFIVHNELEDGWMWVTNLRTDEQGLIVEDLVEEVGR

± gives the uncertainty stated by the source.

Variants of B1 are the subject of the data set. The data set can be described thus: abundance fitness (aPCA) (normalised: wild type 0, dead -1); higher = more abundant; growth selection in yeast, the domain comes from the species named. The conditions noted are these: Homo sapiens.
For the variant D46W, the abundance fitness amounted to 0.029 ± 0.053. For the variant D46T, the abundance fitness is -0.029 ± 0.028. To D46S belongs -0.011 ± 0.023; to D46N, 0.004 ± 0.025.

As for D46M, the abundance fitness was -0.014 ± 0.045. To D46A belongs 0.05 ± 0.027. As for D46C, the figure is -0.002 ± 0.026; as for D17R, 0.005 ± 0.03. To D17N belongs -0.037 ± 0.032. D17I: the abundance fitness was -0.275 ± 0.033.

Turning to D17W, the abundance fitness is -0.136 ± 0.051.

In the case of L33R, the abundance fitness amounted to 0.04 ± 0.03.

On to L33A, for which the abundance fitness was -0.054 ± 0.031. To L33S belongs -0.102 ± 0.025; to L33D, -0.182 ± 0.03. To N31E belongs -0.038 ± 0.056; to N31C, -0.129 ± 0.027; to N31A, -0.036 ± 0.032.

As to N31L, the abundance fitness is -0.174 ± 0.029. With N31G, the abundance fitness is -0.072 ± 0.028. To G24Q belongs -0.628 ± 0.11; to G24W, -0.545 ± 0.057. For G24S, the abundance fitness is -0.362 ± 0.027. G24L: the abundance fitness is -0.885 ± 0.054.

Regarding G24K, the abundance fitness is -0.981 ± 0.16. To G36I belongs -0.88 ± 0.051; to G36M, -0.928 ± 0.12. As for G36F, the figure is -0.951 ± 0.065; as for G36W, -0.867 ± 0.095; as for G36D, -0.613 ± 0.038. As for E58L, the figure is -0.348 ± 0.033.

With E58F, the abundance fitness is -0.285 ± 0.03. To E58W belongs -0.106 ± 0.061; to E58M, -0.326 ± 0.061; to E58G, -0.156 ± 0.034.

For E58A, the abundance fitness was -0.134 ± 0.045. As for V40C, the figure is -0.102 ± 0.027; as for V40G, -0.547 ± 0.029. On to V40K, for which the abundance fitness was -0.682 ± 0.1. As for V40P, the figure is -0.77 ± 0.073. To V40I belongs -0.829 ± 0.048; to V40F, -0.881 ± 0.045; to T16C, -0.38 ± 0.027.

Turning to T16H, the abundance fitness is -0.784 ± 0.047. To T16R belongs -0.456 ± 0.029; to T16S, -0.031 ± 0.024. As for L43H, the figure is -0.612 ± 0.047. L43F: the abundance fitness was -0.425 ± 0.029. Turning to P9L, the abundance fitness is -0.772 ± 0.048. To P9E belongs -0.103 ± 0.069; to P9V, -0.855 ± 0.054.

For the variant P9F, the abundance fitness is -0.73 ± 0.039. As for P9K, the figure is -0.232 ± 0.07. Consider W37I, for which the abundance fitness is -0.104 ± 0.022. To W37T belongs 0.037 ± 0.024; to W37G, -0.049 ± 0.02. To W37A belongs -0.014 ± 0.021; to W37F, -0.004 ± 0.021. As for W37Y, the figure is 0.024 ± 0.021; as for L8K, -0.129 ± 0.054; as for L8S, -0.03 ± 0.025. In the case of L8A, the abundance fitness worked out at 0.074 ± 0.034.

On to E32Y, for which the abundance fitness is -0.03 ± 0.029. Consider E32T, for which the abundance fitness was 0.003 ± 0.031. As for E32C, the figure is -0.058 ± 0.029. As for V52T, the figure is 0.023 ± 0.03; as for T45L, -0.836 ± 0.042; as for T45M, -0.974 ± 0.11. As for V56N, the figure is -0.874 ± 0.056; as for V56F, -0.953 ± 0.047; as for V56G, -0.85 ± 0.046.

In the case of E34L, the abundance fitness was -0.182 ± 0.033.

Regarding E34I, the abundance fitness was -0.258 ± 0.037. Take T11L: the abundance fitness was -0.169 ± 0.028.

With T11C, the abundance fitness is -0.028 ± 0.028.

T11I: the abundance fitness was -0.055 ± 0.028.

Consider K12G, for which the abundance fitness was found to be 0.023 ± 0.032.

For the variant K12Y, the abundance fitness was -0.824 ± 0.044.

As to K12Q, the abundance fitness is -0.202 ± 0.096. Take K12T: the abundance fitness was -0.7 ± 0.048. As for S20I, the figure is -0.844 ± 0.053; as for S20F, -0.877 ± 0.067; as for S20V, -0.972 ± 0.057. As for S20Q, the figure is -0.828 ± 0.13; as for S20N, -0.14 ± 0.03. To I19N belongs -1.03 ± 0.069; to I19E, -0.881 ± 0.14; to I19P, -0.989 ± 0.11. In the case of I7E, the abundance fitness was -0.551 ± 0.1.

With I7N, the abundance fitness was -0.292 ± 0.032.

Regarding T41Y, the abundance fitness was -0.312 ± 0.033.

On to T41N, for which the abundance fitness was -0.576 ± 0.033. As for T41D, the figure is -0.862 ± 0.053; as for T41S, -0.19 ± 0.026. As for T41A, the figure is -0.633 ± 0.045; as for Q48G, -0.375 ± 0.033. As for Q48W, the figure is -0.32 ± 0.062; as for G49D, -0.836 ± 0.05; as for G49S, -0.979 ± 0.051.

Turning to G49W, the abundance fitness is -1.09 ± 0.18. For the variant G49E, the abundance fitness is -0.766 ± 0.085. As for G49P, the figure is -0.846 ± 0.067; as for F27V, -0.901 ± 0.045; as for F27L, -0.241 ± 0.029. To F27H belongs -0.724 ± 0.05; to F27K, -0.965 ± 0.13; to F27M, -0.108 ± 0.07. With E57Q, the abundance fitness is -0.083 ± 0.081. Turning to E57K, the abundance fitness is -0.471 ± 0.12. To E57D belongs -0.251 ± 0.053; to E57W, -0.921 ± 0.17. As for L50M, the figure is 0.004 ± 0.059; as for L50D, -0.958 ± 0.055; as for L50S, -0.07 ± 0.024. To L50Y belongs -0.05 ± 0.026. With L50G, the abundance fitness was -0.613 ± 0.031. As for A6W, the figure is -0.953 ± 0.051; as for A6E, -0.819 ± 0.054. To A6R belongs -0.908 ± 0.029; to A6S, -0.258 ± 0.02. Y10C: the abundance fitness is -0.539 ± 0.05. As for Y10R, the figure is -0.27 ± 0.045; as for H30I, -0.163 ± 0.03. Consider H30G, for which the abundance fitness is -0.444 ± 0.028. As for H30A, the figure is -0.4 ± 0.033; as for V59T, -0.113 ± 0.031; as for V59L, -0.066 ± 0.027. To V59I belongs -0.04 ± 0.029; to V59Q, -0.055 ± 0.05; to W39L, -0.063 ± 0.022. Consider W39P, for which the abundance fitness was -0.796 ± 0.043. Take W39H: the abundance fitness is -0.204 ± 0.024. To W39Q belongs -0.079 ± 0.046.

For the variant W39D, the abundance fitness is -0.226 ± 0.023.

For W39F, the abundance fitness was -0.034 ± 0.021. To W39V belongs -0.195 ± 0.021; to N42E, -0.698 ± 0.11. For the variant N42W, the abundance fitness is -0.929 ± 0.11. To N42C belongs -0.1 ± 0.03; to N42P, -0.874 ± 0.091; to N42G, -0.802 ± 0.036.

On to D15I, for which the abundance fitness was -0.518 ± 0.045. On to D15H, for which the abundance fitness was -0.04 ± 0.034. As for D15G, the figure is -0.011 ± 0.025; as for D15N, -0.022 ± 0.037; as for D15K, -0.169 ± 0.079.

For I28W, the abundance fitness is -0.136 ± 0.03.

As for I28L, the abundance fitness was -0.038 ± 0.022. With I28V, the abundance fitness was -0.016 ± 0.021.

On to K23T, for which the abundance fitness is -0.058 ± 0.024. To K23V belongs -0.13 ± 0.028; to K23R, -0.094 ± 0.022; to K23E, 0.006 ± 0.041. For the variant I51Y, the abundance fitness is -0.834 ± 0.048.

As for I51L, the abundance fitness was -0.157 ± 0.029.

For the variant I51C, the abundance fitness is -0.401 ± 0.03.

As to I51H, the abundance fitness was -0.857 ± 0.054. To V13E belongs 0.019 ± 0.047; to V13A, 0.018 ± 0.036. As for V13I, the figure is -0.019 ± 0.029; as for V13C, 0.015 ± 0.028. As for V13Q, the figure is 0.025 ± 0.046. V13R: the abundance fitness is 0.071 ± 0.03. As for E53V, the figure is -0.053 ± 0.028; as for E53P, -0.031 ± 0.04; as for E53D, -0.045 ± 0.03. To D35Y belongs -0.268 ± 0.029.
